Data published in the RNAGym collection of RNA variant scans (doi:10.1021/acssynbio.7b00057).

B1: Pistol ribozyme (parent)
chain: GGGUCGUUGUUCCAUAAUCGCGUGGAUAUGGCACGCAAGUUUCUACCGGGCACCGUAAAUGUCCGACUGGAGCCGUUCGGGCGGCUAUAAACAGACCUCAGGCCCGAAGCGUGGCGGCACCUGCCGCCGGUGGUAAAAAAGAUCGGAAGAGCACACGUCU

Variants of: B1
Test: aptazyme ON/OFF ratio, guanine; higher = stronger switching; co-transcriptional cleavage with and without guanine

In order of falling “aptazyme ON/OFF ratio” value:
1. U7C U8C G9U U10C  2.52
2. U7C U8C G9C U10G  1.61
3. U7C U8C G9U U10G  1.42
4. U7C U8C G9U U10G U11A C12A  1.37
5. U7C U8C G9U U10A U11G C13U  1.31
6. U7C U8C G9C U10C U11G  1.3
7. U7C U8C G9C U11C C13A  1.28
8. U7C U8C G9U U10C C12U C13U  1.28
9. U7C U8C G9U U10G U11A C12G  1.25
10. U7C U8C G9C U11C C13U  1.24
11. U7C U8C G9U U10A U11A C13U  1.22
12. U7C U8C G9U U10A C12A  1.22
13. U7C U8C G9U U10A C12G  1.22
14. U7C U8C G9C U10G U11C C13A  1.22
15. U7C U8C G9U U10A U11G C12A  1.2
16. U7C U8C G9U U10A U11A C12U C13U  1.18
17. U7C U8C G9U U10G U11A C12G C13G  1.18
18. U7C U8C G9U U10A C12U  1.17
19. U7C U8C G9U U10C C12A C13A  1.17
20. U7C U8C G9U U10A U11C C13A  1.15
21. U7C U8C G9U U10C U11A C12G C13G  1.15
22. U7C U8C G9U U10A U11G C12G  1.15
23. U7C U8C G9C U10C U11A C13A  1.14
24. U7C U8C G9U U10A U11A C12U C13G  1.14
25. U7C U8C G9C U10G U11A C13A  1.14
26. U7C U8C G9C U10G U11G C12G  1.14
27. U7C U8C G9C U10C C12U C13G  1.14
28. U7C U8C G9U U10C U11A C12U C13G  1.14
29. U7C U8C G9U U10A U11A C13A  1.13
30. U7C U8C G9U U10A  1.13
31. U7C U8C G9C U10C U11A C13G  1.13
32. U7C U8C G9U U10C U11A C12G C13A  1.13
33. U7C U8C G9U U10C U11A C12U C13A  1.13
34. U7C U8C G9C U10C U11C C12G  1.13
35. U7C U8C G9U U10A U11G C13A  1.12
36. U7C U8C G9U U10C C12U C13A  1.12
37. U7C U8C G9C U11G C13G  1.12
38. U7C U8C G9C U11G C13A  1.12
39. U7C U8C G9U U10A U11G C13G  1.11
40. U7C U8C G9C U10G U11G C12A  1.11
41. U7C U8C G9C U10G U11G C12U  1.11
42. U7C U8C G9U U10A U11G C12U  1.11
43. U7C U8C G9U U10C C12U C13G  1.1
44. U7C U8C G9U U10A U11C C13U  1.1
45. U7C U8C G9C U11G C13U  1.1
46. U7C U8C G9C U10G U11G C13U  1.1
47. U7C U8C G9C U11G C12U C13U  1.1
48. U7C U8C G9C U10C U11A C12A C13U  1.1
49. U7C U8C G9C U10G C12G C13U  1.1
50. U7C U8C G9C U10G C12U C13G  1.09
51. U7C U8C G9U U10A U11A C12U C13A  1.09
52. U7C U8C G9C U10G U11A C13U  1.09
53. U7C U8C G9U U10C C12A C13G  1.09
54. U7C U8C G9C U10C C12U C13U  1.09
55. U7C U8C G9C U10C U11C C12A C13G  1.09
56. U7C U8C G9U U10C U11A C12G C13U  1.09
57. U7C U8C G9U U10C U11A C12U C13U  1.09
58. U7C U8C G9C U10G C12G C13G  1.09
59. U7C U8C G9C U10G C12U C13U  1.08
60. U7C U8C G9C U10G C12U C13A  1.08
61. U7C U8C G9C U10G U11A C13G  1.08
62. U7C U8C G9U U10G U11A C12G C13U  1.08
63. U7C U8C G9C U10G U11C C13G  1.08
64. U7C U8C G9C U10G U11C C13U  1.08
65. U7C U8C G9C U10G U11G C13G  1.08
66. U7C U8C G9C U10C U11C C12U C13A  1.08
67. U7C U8C G9C U10C U11C C12U C13G  1.08
68. U7C U8C G9U U10C C12A C13U  1.07
69. U7C U8C G9U U10A U11C C13G  1.07
70. U7C U8C G9C U11G C12U C13G  1.07
71. U7C U8C G9C U10C U11A C12A C13A  1.07
72. U7C U8C G9U U10G U11A C12G C13A  1.06
73. U7C U8C G9C U10G U11G C13A  1.06
74. U7C U8C G9C U11G C12U C13A  1.06
75. U7C U8C G9C U10C U11A C12A C13G  1.06
76. U7C U8C G9C U10C U11C C12U  1.06
77. U7C U8C G9C U10C U11A C13U  1.05
78. U7C U8C G9C U10G C12G C13A  1.05
79. U7C U8C G9C U11C C13G  1.04
80. U7C U8C G9C U10C U11C C12A  1.04
81. U7C U8C G9C U10C U11C C12U C13U  1.03
82. U7C U8C G9C U10C U11C C12A C13U  1.02
83. U7C U8C G9C U10C U11C C12A C13A  0.986
